Measured values as given in the RNAGym collection of RNA variant scans (doi:10.1073/pnas.2313332121).

B1: TPR t1 (parent)
chain: GACCAAUCUGCCCUCAGAGCUCGAGAACAUCUUCGGAUGCAGAGGAGGCAGGCUUCGGUGGCGCGAUAGCGCCAACGUCCUCAACCUCCAAUGCAUCCCACCACAUGAUGAUGCCUGAAGAGCCUUGGUUUUUUG

Variants of: B1
Experiment: polymerase ribozyme fitness, log enrichment relative to wild type (log ratio); higher = more active; in vitro selection for triplet polymerase activity
Summary of the method: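 Streptavidin-bead capture of gel-excised extended constructs, followed by RT-PCR, closed a single triplicate in vitro selection round. That round began by annealing PCR-built, transcribed mutant libraries of each subunit of a heterodimeric triplet polymerase ribozyme with a biotinylated primer, the partner subunit and triplets, then incubating them frozen at −7 °C. After Illumina sequencing of inputs and outputs, genotypes needed ≥10 input reads and ≥1 read per output. Fitness is the base-2 logarithm of genotype enrichment over wild-type enrichment, using inverse-variance-weighted replicate averages.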

Variant	polymerase ribozyme fitness (log ratio)
A111G G117C	-4.52
C104A C123U G128U U130A	-1.35
U116A	-2.96
U116C	-0.392
U116G	-1.95
G127A G128U	-2.41
A111C G117C	-4.16
U106C U109A A121U	-4.69
U129G U132A	-3.7
G113C U126C	-2.46
U109A G110U	-3.28
G107U A121U G128C	-4.77
C102U U109A	-6.07
C102U G113A	-2.86
G117C G127C	-5.04
G117C G127A	-6.44
G120A G135A	-0.0112
A105G U106A G120U U133C	0.414
U116A A121U	-0.72
G120A G128A	-0.497
G107U C114A	-7.09

Variant	polymerase ribozyme fitness (log ratio)
A118C C124G	-0.56
G120U U130C	0.002
G113U C124A	-1.53
A103C U109G U130C	-5.77
G110A A121U	0.16
C124G U125A U134C	0.622
G120U U125A	0.531
C115U A118U	-1.41
A105G U112C	-0.683
G120A U126A U131G	0.608
G110A G122U	-1.41
A108C	-3.71
A108G	-1.19
A108U	-4.97
U112A G113A	-0.782
C115U G127C	-2.76
C123A U130A	0.213
G127C G128U U131C	-1.37
G117A U131A	-1.59
G113A U126G	-3.39
G120U U129G	-1.17

Variant	polymerase ribozyme fitness (log ratio)
C115U U129A	-3.34
G120C U132C	1.38
C102U G128C U129A	-4.82
A105C C114U G120C	-2.29
G120A U130A	0.684
G113C G120A	-2.39
C102U U125A U129C	-3.71
A108U U129A	-6.43
U106A G117C	-1.94
C104A G120U G127C	-1.76
C104A	-1.45
C104U	0.111
C104G	-6.88
U130A G135U	-0.655
C104A C124U U130A	-3.43
U130A U133A	-1.4
G120A G127C G135U	-0.669
U109A U130A	-5.09
C114U U129C	-3.79
A118U G127C	-1.35
G117C G135U	-3.37

Variant	polymerase ribozyme fitness (log ratio)
C102A U112G U132A	-2.53
U112G U116G	-2.14
U109A C123U	-3.85
U109A C123A	-6.83
C114G G117A	-5.27
C114G G117U	-3.8
C114G G128U U129A	-5.24
U106A G127C	-3.2
G113A U125C	-1.17
A105U A111U	-5.69
U106A C124A G128A	0.53
A111G G120A G122A	-2.07
G117A A119C G120C G122A U133G	-3.42
U106A U109A	-3.73
G117A G120U	-1.9
U106A U133G	-0.54
G110A C123U	-0.322
U112G G117U	-1.25
U112G G117A	-2.9
A105U G110U	-6.12
